# According to patent US20240052052A1 (ANTENGENE BIOLOGICS, published 2024):
# Substitutions are numbered along the chain they refer to.
# T1: human CD24 (human, UniProt P25063 27-59, heavily glycosylated, GPI-anchored (as described in the background))
# T1 construct: whole, on cells; Target of all cell-based FACS assays; also called hCD24; Cluster of differentiation 24
# T1 chain (looked up): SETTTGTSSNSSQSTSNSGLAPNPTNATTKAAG
# B1: 81A1F8 (antibody, V domains shown)
# VH: EVQLQQSGPELVKPGASVKISCKATGYLFTGYYMNWVKQSPEKSLEWIGEINPNTGDTNNNQKFKAKATMTVDRSSSTAYMQLKRLTSEDSAVYYCVRRDYGTSLDYWGQGTTLTVSS
# VL: DVQITQSPSYLAASPGETITINCRASKSINKYLAWYQEKPGKTNKLLIHSGSTLQSGIPSRFSGSRSGTDFTLTISNLEPEDFAMYYCQQHNEYPITFGAGTKLELK
# notes: mouse monoclonal antibody
# B2: 110D4G4 (antibody, V domains shown)
# VH: EVQLQQSGPGLVKPGASVKISCRASGYLFTGYYMNWVKQSPEKSLEWIGEINPNTGDPRYDQKFKAKATLTVDRSSSTAYMHLKSLTSEDSAVYFCARRDYGTSLDYWGQGTTLTVTS
# VL: B1 VL with N30S, H49Y, R66G, T69S, N77S, I96L
# notes: mouse monoclonal antibody; also called mAb-110D4G4
# B3: 73H5-1G2 (antibody, V domains shown)
# VH: QVQLKQSGPGLVQPSQSLSITCTVSGFSLTNYGVHWIRQSPGKGLEWLGVIWRGGSTDYNAAFMSRLSITKDNSKSQVFFQMNSLQAADTAIYYCANNYGYDCFAYWGQGTLVTVSA
# VL: B1 VL with N30I, H49Y, R66G, S76T, N77S, I96L, K103R
# notes: mouse monoclonal antibody
# B4: 56A7E3 (antibody, V domains shown)
# VH: EVQLQQSGPELVKPGASVKIPCKASGYTFTAYNMDWVKQSHGMSLEWIGDINPINGGTIYNQNFEGKATLTVDKSSSTAYLELRSLTSEDTAVYYCARRGSYYYGSSHYALDFWGQGTSVSVSS
# VL: DIQMTQITSSLSASLGDRVTITCRASQDISNYLNWYQQKPDGTVKLLIYYTSRLLSGVPSRFSGSGSGTDYSLTISNLEQEDIATYFCQQDHTLPRTFGGGTKLEIR
# notes: mouse monoclonal antibody
# B5: 58F10-1F6 (antibody, V domains shown)
# VH: EVQLRQSGPELVKPGAAVKISCKASGYSFTGYHMNWVKQSPEKSLEWIGEINPITSGITYNQIFKAKATLTVDKSSSTAYLQLKSLTSEDSAVYYCTRRDYGTSLDYWGQGTTLTVSS
# VL: B4 VL
# notes: mouse monoclonal antibody
# B6: 71A4F12 (antibody, V domains shown)
# VH: B4 VH with I54N, G57D, I59V, E65K, L81M
# VL: B4 VL with D17N, T22S, S30R, H92N, T93S, K103R
# notes: mouse monoclonal antibody
# B7: 81A1F8-VH-11/VL-21 (antibody, V domains shown)
# VH: QVQLVQSGAEVKKPGASVKVSCKASGYLFTGYYMNWVRQAPGQGLEWMGEINPNTGDTNNNQKFKARVTMTVDRSISTAYMELSRLRSDDTAVYYCVRRDYGTSLDYWGQGTLVTVSS
# VL: DVQITQSPSFLSASVGDRVTITCRASKSINKYLAWYQQKPGKAPKLLIHSGSTLQSGVPSRFSGSRSGTEFTLTISSLQPEDFATYYCQQHNEYPITFGQGTKLEIK
# notes: humanized antibody based on 81A1F8; also called 81A1F8-1121
# B8: 81A1F8-VH-11/VL-41 (antibody, V domains shown)
# VH: B7 VH
# VL: B7 VL with F10T, E81D
# notes: humanized antibody based on 81A1F8
# B9: 81A1F8-VH-21/VL-41 (antibody, V domains shown)
# VH: B7 VH with I76T, R85S, D89E
# VL: B7 VL with F10T, E81D
# notes: humanized antibody based on 81A1F8; also called 81A1F8-2141
# B10: 81A1F8-VH-21/VL-21 (antibody, V domains shown)
# VH: B7 VH with I76T, R85S, D89E
# VL: B7 VL
# notes: humanized antibody based on 81A1F8; also called 81A1F8-2121
# Target: T1, human CD24
# Assay: FACS, H1975 cells
# Protocol: (§1) Sequences of some of antibodies from Table 1 were selected to generate and produce human IgG4 chimeric antibodies. […] The protocol for FACs analysis is described as follows: [0536] a. Digested cells using TrypLE™ Express Enzyme (IX); Centrifuged the harvested cells at 400 g for 5 min and discarding the supernatant. [0537] b. Washed the cells 2 times with cold FACS buffer by centrifuging at 400 g for 5 min and discarding the supernatant. [0538] c. […] Incubate at […] for 1 h. [0539] d. Washed the cells twice by using the condition in step b. Resuspended the cells with 100 μl/well diluted 2nd antibody, incubated at 4 degree for 1 h in the dark. [0540] e. Washed the cells twice by using the condition in step b. Resuspended the cells with 100 μl/well cold FACS buffer. Kept the cells in dark for FACS analysis.
row,EC50 [nM],Binder
1,2.03,B1
2,5.22,B2
3,31.3,B3
4,93.1,B4
5,53.1,B5
6,71.9,B6

# Target: T1, human CD24
# Assay: FACS, MCF7 cells
# Protocol: as §1
EC50 [nM],Max MFI,Binder
3,,B1
5.2,,B2
45.9,,B3
81.7,,B4
43.4,,B5
121,12600,B6

# Target: T1, human CD24
# Assay: FACS, 293F-hCD24 cells
# Protocol: (§2) Screening & Expansion: The subcloning plates were screened by Acumen assay and the subclones with good binding ability were expanded to 24-wells for confirmation tests. The specificity and cross-reactivity of these subclones were confirmed with FACs analysis. […] Fluorescent dye-conjugated secondary antibody was used to detect the binding of the primary antibody with the cells. Median fluorescence intensity (MFI) was measured by FACs analysis.
row,FACS MFI,Binder
1,10300,B1
2,56500,B2
3,20100,B3
4,26400,B4
5,7420,B5
6,7350,B6

# Target: T1, human CD24
# Assay: FACS, MDA-MB-468 cells
# Protocol: as §1
EC50 [nM],FACS MFI,Binder
5.23,24900,B1
12.2,52800,B2
28,6400,B3
16.7,15300,B4
38.9,49800,B5
11.7,32500,B6

# Target: T1, human CD24
# Assay: FACS, 5637 cells
# Protocol: as §2
row,FACS MFI,Binder
1,22200,B1
2,47100,B2
3,6360,B3
4,18500,B4
5,34200,B5
6,18600,B6

# Target: T1, human CD24
# Assay: FACS, A549 cells
# Protocol: as §1
EC50 [nM],Max MFI,Binder
2.37,8660,B1
2.72,18400,B2
36,5700,B3
92.4,3320,B4
12.6,12600,B5
1.97,4410,B6

# Target: T1, human CD24
# Assay: FACS, 5637 cells
# Remark: another data set of the same source
# Protocol: as §1
EC50 [nM],Max MFI,Binder
3.31,,B1
5.89,,B2
24.6,7440,B3
31.6,,B4
22.4,,B5
39.7,,B6

# Target: T1, human CD24
# Assay: FACS, Nalm1 cells
# Protocol: as §1
EC50 [nM],Max MFI,Binder
1.9,24800,B1
3.27,76200,B2
33.8,58500,B3
20.9,74600,B4
8.72,60300,B5
6.28,45000,B6

# Target: T1, human CD24
# Assay: FACS, CHOK1-hCD24 cells
# Protocol: as §1
EC50 [nM],Max MFI,Binder
1.52,45900,B1
1.52,28900,B2
23.8,19900,B3
4.85,36700,B4
9.7,28100,B5
1.72,28800,B6

# Target: T1, human CD24
# Assay: flow cytometry, HT-29 and Nalm6 cells
# Protocol: Briefly, HT-29 or Nalm6 cells were washed three times using PBS and firstly incubated with humanized variants. After three times washing, secondary antibody was incubated with cells. MFI of the samples was analyzed with Flow Cytometry and cells-based affinity was calculated.
row,binding result,Binder
1,binds,B7
2,binds,B8
3,binds,B9
4,binds,B10

# Target: T1, human CD24
# Assay: FACS, Nalm1 cells
# Remark: another data set of the same source
# Protocol: as §2
row,FACS MFI,Binder
1,24800,B1
2,76200,B2
3,58500,B3
4,74600,B4
5,20900,B5
6,45000,B6

# Target: T1, human CD24
# Assay: FACS, HT-29 cells
# Protocol: as §1
EC50 [nM],Max MFI,Binder
2.93,3050,B1
2.92,5610,B2
40,4820,B3
18.1,1460,B4
10.8,4900,B5
5.46,4780,B6

# Target: T1, human CD24
# Assay: FACS, H1975 cells
# Remark: another data set of the same source
# Protocol: as §2
row,FACS MFI,Binder
1,10600,B1
2,24900,B2
3,2200,B3
4,2190,B4
5,17500,B5
6,7200,B6

# Target: T1, human CD24
# Assay: FACS, 293F-hCD24 cells
# Remark: another data set of the same source
# Protocol: as §1
EC50 [nM],Max MFI,Binder
1.7,10300,B1
6.55,56500,B2
16.2,20100,B3
7.52,26400,B4
24.1,58200,B5
6.74,39400,B6

# Target: T1, human CD24
# Assay: FACS, MCF7 cells
# Remark: another data set of the same source
# Protocol: as §2
row,FACS MFI,Binder
1,11500,B1
2,21200,B2
3,373,B3
4,9190,B4
5,17400,B5
6,2420,B6
